Test results reported in patent publication JP2007175055A (dated 2007).

Tests used:
[1] = target: T1, recombinant soluble human CD4 (AA1-AA375, V1-V4) (human, UniProt P01730 26-400); assay: affinity column of human rsCD4 on Affi-Gel 10
T1 construct: range 1-375; also called rsCD4

[2] = target: T2, human CD4 on the cell surface (human, UniProt P01730 26-458); assay: FACS: H9 cells pre-incubated with 10 ug r-gp120; competitors Leu3A and OKT4A
T2 construct: whole, on cells; also called cell surface CD4; CD4+ cells

[3] = target: T3, rhesus monkey CD4 on circulating and lymph node CD4+ cells (rhesus monkey, UniProt P16003 26-458); assay: FACS of rhesus monkey blood cells, indirect staining
T3 construct: whole, on cells; also called アカゲザルCD4+細胞

[4] = target: T4, human CD4 V1 polypeptide (AA1-AA113 and/or AA1-AA111) (human, UniProt P01730 26-138); assay: RIA: CD4-V1 competing with 125I-rsCD4 for immobilised antibody
T4 construct: range 1-113; also called CD4 VI

[5] = target: human CD4 V1V2 polypeptide (AA1-AA180) (human, UniProt P01730 26-205); assay: RIA: CD4-V1V2 (5 ug/ml) competing with 125I-rsCD4 for immobilised antibody

T3 sequence (P16003 26-458): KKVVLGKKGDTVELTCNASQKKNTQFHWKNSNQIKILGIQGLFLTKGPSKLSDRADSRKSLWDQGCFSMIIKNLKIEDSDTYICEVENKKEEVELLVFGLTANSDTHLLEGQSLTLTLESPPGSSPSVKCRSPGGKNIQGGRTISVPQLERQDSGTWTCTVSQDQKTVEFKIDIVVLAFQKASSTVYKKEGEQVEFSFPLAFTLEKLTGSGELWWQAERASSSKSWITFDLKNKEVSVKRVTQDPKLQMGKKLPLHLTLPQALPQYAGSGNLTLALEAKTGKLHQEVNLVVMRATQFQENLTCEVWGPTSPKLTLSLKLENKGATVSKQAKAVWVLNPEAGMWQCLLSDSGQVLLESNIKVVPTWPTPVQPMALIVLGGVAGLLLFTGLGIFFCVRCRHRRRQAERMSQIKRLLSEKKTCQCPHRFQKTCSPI

B1: soluble recombinant HIV gp120 (baculovirus) (ligand)
chain: not shown
notes: also called r-gp120; HIV r-gp120
Does B1 bind [1]?
Result: binds

Does B1 bind [2]?
Result: binds

B2: mouse monoclonal antibody 5A8 (antibody, V domains shown)
VH: EVKLQESGPELVKPGASVKMSCKASGYTFTSYVIHWVRQKPGQGLDWIGYINPYNDGTDYDEKFKGKATLTSDKSSSTAYMELSSLTSEDSAVYYCAREKDNYATGAWFAYWGQGTTVTVSS
VL: DIVMTQSPSSLAVSVGEKVTMICKSSQSLLYSTNQKNYLAWYQQKPGQSPKLLIYWASTRESGVPDRFTGSGSGTDFTLTISSVKAEDLAVYYCQQYYSYRTFGGGTKLEIK
notes: also called 5A8-2F6; hybridoma ATCC HB 10881 (IVI-10257)
What does the source list for B2?
binding result [3]: binds; binding result [4]: no binding (tested: 5μg/ml); binding result [5]: binds
